# Data as given in patent US20100112601A1.
# Target: PAC1 receptor expressed in Chinese hamster ovary (CHO) cells (UniProt P41586)
# Experiment: cell-based or functional assay
# UniProt P41586, sequence (P41586 21-468 limits assumed): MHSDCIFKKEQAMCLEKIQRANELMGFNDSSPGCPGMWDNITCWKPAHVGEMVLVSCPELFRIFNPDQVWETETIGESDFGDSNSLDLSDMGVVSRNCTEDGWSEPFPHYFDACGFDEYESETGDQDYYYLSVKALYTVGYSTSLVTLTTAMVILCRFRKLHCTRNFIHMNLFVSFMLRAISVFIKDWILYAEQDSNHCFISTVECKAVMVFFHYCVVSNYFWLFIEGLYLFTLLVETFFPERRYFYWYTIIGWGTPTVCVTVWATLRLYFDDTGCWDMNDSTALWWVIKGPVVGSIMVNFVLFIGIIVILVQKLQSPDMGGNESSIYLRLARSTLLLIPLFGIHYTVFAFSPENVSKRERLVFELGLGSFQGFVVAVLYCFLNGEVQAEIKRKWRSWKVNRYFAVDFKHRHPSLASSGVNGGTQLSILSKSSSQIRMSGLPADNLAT
substance,measurement,value
PACAP(6-38)NH2 (from UniProt P18509 87-119) (peptide),"inhibition of PACAP27-stimulated GTPγ-35S binding to membranes of PAC1-expressing CHO cells, IC50",100 nM
